Data on 34 variants can be found in the Human Domainome abundance scans (Beltran et al. 2025).

The labels stand for the following.
B1: Protein S100-G, residues 1 to 79; numbered along this chain, P02633 (parent)
chain: MSAKKSPEELKGIFEKYAAKEGDPNQLSKEELKLLLQTEFPSLLKGPSTLDELFEELDKNGDGEVSFEEFQVLVKKISQ

± gives the uncertainty stated by the source.

In this series the parent is B1. As to the kind of experiment: abundance fitness (aPCA) (normalised: wild type 0, dead -1); higher = more abundant; growth selection in yeast, the domain comes from the species named. The following applies: Bos taurus.
Consider MSAKKSPEELKGIFEKYTAKEGDPNQLSKEELKLLLQTEFPSLLKGPSTLDELFEELDKNGDGEVSFEEFQVLVKKISQ [A18T], for which the abundance fitness is -0.15 ± 0.07.

With MSAKKSPEELKGIFEKYGAKEGDPNQLSKEELKLLLQTEFPSLLKGPSTLDELFEELDKNGDGEVSFEEFQVLVKKISQ [A18G], the abundance fitness was -0.077 ± 0.08.

On to MSAKKSPEELKGIFEKYWAKEGDPNQLSKEELKLLLQTEFPSLLKGPSTLDELFEELDKNGDGEVSFEEFQVLVKKISQ [A18W], for which the abundance fitness is -0.516 ± 0.093.

Turning to MSAKKSPEELKGIFEKYKAKEGDPNQLSKEELKLLLQTEFPSLLKGPSTLDELFEELDKNGDGEVSFEEFQVLVKKISQ [A18K], the abundance fitness is -0.224 ± 0.085.

As for MSAKKSPEELKGIFEKYEAKEGDPNQLSKEELKLLLQTEFPSLLKGPSTLDELFEELDKNGDGEVSFEEFQVLVKKISQ [A18E], the abundance fitness is -0.904 ± 0.099.

As to MSAKKSPEELKGIFEKYQAKEGDPNQLSKEELKLLLQTEFPSLLKGPSTLDELFEELDKNGDGEVSFEEFQVLVKKISQ [A18Q], the abundance fitness was -0.248 ± 0.079.

On to MSAKKSPEELKGIFEKYSAKEGDPNQLSKEELKLLLQTEFPSLLKGPSTLDELFEELDKNGDGEVSFEEFQVLVKKISQ [A18S], for which the abundance fitness is -0.055 ± 0.063.

For MSAKKSPEELKGIFEKYYAKEGDPNQLSKEELKLLLQTEFPSLLKGPSTLDELFEELDKNGDGEVSFEEFQVLVKKISQ [A18Y], the abundance fitness is -0.424 ± 0.085.

As for MSAKKSPEELKGIFEKYMAKEGDPNQLSKEELKLLLQTEFPSLLKGPSTLDELFEELDKNGDGEVSFEEFQVLVKKISQ [A18M], the abundance fitness is -0.161 ± 0.092.

For the variant MSAKKSPEELKGIFEKYLAKEGDPNQLSKEELKLLLQTEFPSLLKGPSTLDELFEELDKNGDGEVSFEEFQVLVKKISQ [A18L], the abundance fitness was -0.242 ± 0.064.

Turning to MSAKKSPEELKGIFEKYRAKEGDPNQLSKEELKLLLQTEFPSLLKGPSTLDELFEELDKNGDGEVSFEEFQVLVKKISQ [A18R], the abundance fitness was -0.161 ± 0.066.

MSAKKSPEELKGIFEKYNAKEGDPNQLSKEELKLLLQTEFPSLLKGPSTLDELFEELDKNGDGEVSFEEFQVLVKKISQ [A18N]: the abundance fitness was -0.362 ± 0.08.

For the variant MSAKKSPEELKGIFEKYVAKEGDPNQLSKEELKLLLQTEFPSLLKGPSTLDELFEELDKNGDGEVSFEEFQVLVKKISQ [A18V], the abundance fitness was -0.115 ± 0.072.

For MSAKKSPEELKGIFEKYPAKEGDPNQLSKEELKLLLQTEFPSLLKGPSTLDELFEELDKNGDGEVSFEEFQVLVKKISQ [A18P], the abundance fitness was -0.968 ± 0.073.

With MSAKKSPEELKGIFEKYHAKEGDPNQLSKEELKLLLQTEFPSLLKGPSTLDELFEELDKNGDGEVSFEEFQVLVKKISQ [A18H], the abundance fitness was -0.195 ± 0.08.

On to MSAKKSPEELKGIFEKYFAKEGDPNQLSKEELKLLLQTEFPSLLKGPSTLDELFEELDKNGDGEVSFEEFQVLVKKISQ [A18F], for which the abundance fitness was -0.367 ± 0.088.

Take MSAKKSPEELKGIFEKYDAKEGDPNQLSKEELKLLLQTEFPSLLKGPSTLDELFEELDKNGDGEVSFEEFQVLVKKISQ [A18D]: the abundance fitness was -0.846 ± 0.09.

MSAKKSPEELKGIFEKYIAKEGDPNQLSKEELKLLLQTEFPSLLKGPSTLDELFEELDKNGDGEVSFEEFQVLVKKISQ [A18I]: the abundance fitness is -0.248 ± 0.085.

Turning to MSAKKSPEELKGIFEYYAAKEGDPNQLSKEELKLLLQTEFPSLLKGPSTLDELFEELDKNGDGEVSFEEFQVLVKKISQ [K16Y], the abundance fitness was -0.102 ± 0.092.

On to MSAKKSPEELKGIFEKYAHKEGDPNQLSKEELKLLLQTEFPSLLKGPSTLDELFEELDKNGDGEVSFEEFQVLVKKISQ [A19H], for which the abundance fitness was -0.013 ± 0.083.

As to MSAKKSPEELKGIFEKYAGKEGDPNQLSKEELKLLLQTEFPSLLKGPSTLDELFEELDKNGDGEVSFEEFQVLVKKISQ [A19G], the abundance fitness is 0.058 ± 0.078.

Turning to MSAKKSPEELKGIFEKYASKEGDPNQLSKEELKLLLQTEFPSLLKGPSTLDELFEELDKNGDGEVSFEEFQVLVKKISQ [A19S], the abundance fitness worked out at 0.007 ± 0.065.

In the case of MSAKKSPEELKGIFEKYAPKEGDPNQLSKEELKLLLQTEFPSLLKGPSTLDELFEELDKNGDGEVSFEEFQVLVKKISQ [A19P], the abundance fitness was -0.132 ± 0.074.

In the case of MSAKKSPEELKGIFEKYAQKEGDPNQLSKEELKLLLQTEFPSLLKGPSTLDELFEELDKNGDGEVSFEEFQVLVKKISQ [A19Q], the abundance fitness was 0.028 ± 0.085.

For the variant MSAKKSPEELKGIFEKYAWKEGDPNQLSKEELKLLLQTEFPSLLKGPSTLDELFEELDKNGDGEVSFEEFQVLVKKISQ [A19W], the abundance fitness is -0.111 ± 0.085.

For the variant MSAKKSPEELKGIFEKYATKEGDPNQLSKEELKLLLQTEFPSLLKGPSTLDELFEELDKNGDGEVSFEEFQVLVKKISQ [A19T], the abundance fitness amounted to 0.143 ± 0.074.

On to MSAKKSPEELKGIFEKYALKEGDPNQLSKEELKLLLQTEFPSLLKGPSTLDELFEELDKNGDGEVSFEEFQVLVKKISQ [A19L], for which the abundance fitness came out at 0.02 ± 0.064.

Take MSAKKSPEELKGIFEKYADKEGDPNQLSKEELKLLLQTEFPSLLKGPSTLDELFEELDKNGDGEVSFEEFQVLVKKISQ [A19D]: the abundance fitness was -0.034 ± 0.088.

As to MSAKKSPEELKGIFEKYAIKEGDPNQLSKEELKLLLQTEFPSLLKGPSTLDELFEELDKNGDGEVSFEEFQVLVKKISQ [A19I], the abundance fitness is -0.018 ± 0.081.

As for MSAKKSPEELKGIFEKYAVKEGDPNQLSKEELKLLLQTEFPSLLKGPSTLDELFEELDKNGDGEVSFEEFQVLVKKISQ [A19V], the abundance fitness is -0.062 ± 0.071.

For the variant MSAKKSPEELKGIFEKYAKKEGDPNQLSKEELKLLLQTEFPSLLKGPSTLDELFEELDKNGDGEVSFEEFQVLVKKISQ [A19K], the abundance fitness was determined as 0.048 ± 0.09.

As for MSAKKSPEELKGIFEKYACKEGDPNQLSKEELKLLLQTEFPSLLKGPSTLDELFEELDKNGDGEVSFEEFQVLVKKISQ [A19C], the abundance fitness was -0.009 ± 0.08.

As to MSAKKSPEELKGIFEKYAFKEGDPNQLSKEELKLLLQTEFPSLLKGPSTLDELFEELDKNGDGEVSFEEFQVLVKKISQ [A19F], the abundance fitness is -0.057 ± 0.077.

For MSAKKSPEELKGIFEKYARKEGDPNQLSKEELKLLLQTEFPSLLKGPSTLDELFEELDKNGDGEVSFEEFQVLVKKISQ [A19R], the abundance fitness is -0.073 ± 0.069.
